The results in this text go back to the supplement of paper PMC7877785.

± gives the uncertainty stated by the source.

This series is described as follows: self-splicing fitness, log relative to wild type (ln ratio); higher = more splicing; Tetrahymena group I intron in knt gene, E. coli kanamycin selection, DiMSum; sequences stand for … in CUCUCU…GGAGGGAAAAGUUAUCAGGCAUGCACCUGGUAGCUAGUCUUUAAACCAAUAGAUUGCAUCGGUUUAAAAGGCAAGACCGUCAAAUUGCGGGAAAGGGGUCAACAGCCGUUCAGUACCAAGUCUCAGGGGAAACUUUGAGAUGGCCUUGCAAAGGGUAUGGUAAUAAGCUGACGGACAUGGUCCUAACCACGCAGCCAAGUCCUAAGUCAACAGAUCUUCUGUUGAUAUGGAUGCAGUUCACAGACUAAAUGUCGGUCGGGGAAGAUGUAUUCUUCUCAUAAGAUAUAGUCGGACCUCUCCUUAAUGGGAGCUAGCGGAUGAAGUGAUGCAACACUGGAGCCGCUGGGAACUAAUUUGUAUGCGAAAGUAUAUUGAUUAGUUUUGGAGUACUCGUGGUCG
The method in brief:
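Six replicate transformations of E. coli BL21(DE3) with a pET-22b(+) library were grown overnight at 37°C or 30°C. The library randomised all eight P1ex-region intron nucleotides, the intron lying in the knt kanamycin-resistance gene, and plates were LB agar with or without 25 μg/mL kanamycin plus 100 μg/mL carbenicillin, 50 μM IPTG and 0.2% rhamnose. Pooled colonies were amplicon-sequenced on an Illumina HiSeq 2500, and fitness is the DiMSum error-weighted combination of wild-type-normalised replicate fold changes, kanamycin versus none.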

With AUAAAGCAAUAUUACGACAG, the “self-splicing fitness (ln)” value is -1.2 ± 0.1 (30 °C) and -1.15 ± 0.12 (37 °C).
For GGCGAGCAAUAUUACGGAAC the same measures were -1.91 ± 0.19 and -1.68 ± 0.26.
As to CACGAGCAAUAUUACGCCGA, the “self-splicing fitness (ln)” value (30 °C) is -2.35 ± 0.39.
In the case of UAAAAGCAAUAUUACGGGUA, the “self-splicing fitness (ln)” value (30 °C) was -0.918 ± 0.09 and the “self-splicing fitness (ln)” value (37 °C) was -0.192 ± 0.095.
For CUUUAGCAAUAUUACGGUAG the same measures were -1.81 ± 0.085 and -0.685 ± 0.11.
For GGCAAGCAAUAUUACGCCGU the same measures were -2.44 ± 0.34 and -0.00259 ± 0.29.
For GCGAAGCAAUAUUACGAUCU the same measures were -1.09 ± 0.066 and -0.73 ± 0.079.
UCAGAGCAAUAUUACGGAUC: the “self-splicing fitness (ln)” value (37 °C) was -2.15 ± 0.33.
Take GGCAAGCAAUAUUACGGAUA: the “self-splicing fitness (ln)” value by setting is: (30 °C) -0.889 ± 0.1; (37 °C) -0.586 ± 0.097.
Consider AUGAAGCAAUAUUACGCAUA, for which the “self-splicing fitness (ln)” value is, setting by setting: (30 °C) -0.0747 ± 0.071; (37 °C) -0.57 ± 0.082.
For GAACAGCAAUAUUACGUCGU, in that order: -1.5 ± 0.065 and -0.479 ± 0.078.
With GCGCAGCAAUAUUACGAUAG, the “self-splicing fitness (ln)” value was -2.97 ± 0.16 (30 °C) and -0.857 ± 0.12 (37 °C).
Turning to GACAAGCAAUAUUACGCAGA, the “self-splicing fitness (ln)” value runs as follows: (30 °C) -3.04 ± 0.18; (37 °C) -1.83 ± 0.14.
Regarding GCGUAGCAAUAUUACGCGUC, the “self-splicing fitness (ln)” value reads like this: (30 °C) -2.75 ± 0.28; (37 °C) -2.06 ± 0.46.
For CGUCAGCAAUAUUACGUAUG the same measures were -0.163 ± 0.12 and 0.188 ± 0.13.
For CACUAGCAAUAUUACGUGGU, the “self-splicing fitness (ln)” value (30 °C) is -3.41 ± 0.15 and the “self-splicing fitness (ln)” value (37 °C) is -2.88 ± 0.17.
In the case of GUCUAGCAAUAUUACGCUUA, the “self-splicing fitness (ln)” value runs as follows: (30 °C) -0.87 ± 0.077; (37 °C) 0.645 ± 0.097.
For ACAUAGCAAUAUUACGUCUG, in that order: -1.24 ± 0.071 and -0.845 ± 0.09.
For CCGAAGCAAUAUUACGAGUC the same measures were -3.86 ± 0.21 and -2.53 ± 0.19.
Regarding AGGGAGCAAUAUUACGGGAG, the “self-splicing fitness (ln)” value by setting is: (30 °C) -3.56 ± 0.2; (37 °C) -2.13 ± 0.23.
On to CAUCAGCAAUAUUACGACCU, for which the “self-splicing fitness (ln)” value was -2.49 ± 0.31 (30 °C) and -1.17 ± 0.29 (37 °C).
For ACUGAGCAAUAUUACGCGCU the same measures were -3.03 ± 0.23 and -2.1 ± 0.26.
For UCUCAGCAAUAUUACGGUGC the same measures were -3.17 ± 0.24 and -3.08 ± 0.23.
For UCGUAGCAAUAUUACGACAU the same measures were -3.861 ± 0.035 and -2.69 ± 0.043.
Regarding UACAAGCAAUAUUACGCAAC, the “self-splicing fitness (ln)” value (37 °C) was -2.36 ± 0.3.
As for AUAUAGCAAUAUUACGCUAA, the “self-splicing fitness (ln)” value is -1.87 ± 0.3 (30 °C) and -0.768 ± 0.27 (37 °C).
On to UGGAAGCAAUAUUACGCUAG, for which the “self-splicing fitness (ln)” value runs as follows: (30 °C) -0.433 ± 0.1; (37 °C) -0.523 ± 0.17.
For GGCAAGCAAUAUUACGAAAA, in that order: -0.934 ± 0.1 and -1.41 ± 0.15.
For UAUGAGCAAUAUUACGUAAA, in that order: -3.46 ± 0.32 and -1.59 ± 0.19.
For UAAAAGCAAUAUUACGGUAU the same measures were -3.74 ± 0.23 and -1.85 ± 0.21.
In the case of CACCAGCAAUAUUACGGGCC, the “self-splicing fitness (ln)” value is -3.9 ± 0.19 (30 °C) and -1.73 ± 0.14 (37 °C).
For UUUCAGCAAUAUUACGGUCU the same measures were -1.45 ± 0.086 and -0.667 ± 0.087.
For ACGUAGCAAUAUUACGAUGA the same measures were -0.81 ± 0.091 and -0.268 ± 0.11.
As for CGCAAGCAAUAUUACGUCUA, the “self-splicing fitness (ln)” value runs as follows: (30 °C) -1.6 ± 0.13; (37 °C) -0.573 ± 0.11.
For AGAAAGCAAUAUUACGGCAA, in that order: 0.0585 ± 0.1 and -0.187 ± 0.12.
As for GAGCAGCAAUAUUACGCAAA, the “self-splicing fitness (ln)” value was -1.4 ± 0.2 (30 °C) and -0.683 ± 0.14 (37 °C).
For CCAAAGCAAUAUUACGGAUU the same measures were -3.94 ± 0.25 and -3.55 ± 0.35.
For GGCAAGCAAUAUUACGUAAG the same measures were -0.742 ± 0.072 and -1 ± 0.1.
For AGCUAGCAAUAUUACGGGCA, in that order: -0.728 ± 0.12 and -0.379 ± 0.14.
